Test results taken from publication PMC2821871 (Biochemistry, 2010).
No end group written: not given here. *: point of attachment. Biotin = O=C1N[C@H]2[C@H](CS[C@H]2CCCCC(=O)*)N1

T1: CR17 of LRP (human, UniProt Q07954 2770-2817)
T1 chain (looked up): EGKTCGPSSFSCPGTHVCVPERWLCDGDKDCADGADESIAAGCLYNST


How the values were obtained:
[1] = biological target: T1, CR17 of LRP
[2] = biological target: CR16-18 of LRP (P. pastoris) (human, UniProt Q07954 2731-2857); assay: SPR
Sequence of CR16-18 of LRP (P. pastoris) (Q07954 2731-2857): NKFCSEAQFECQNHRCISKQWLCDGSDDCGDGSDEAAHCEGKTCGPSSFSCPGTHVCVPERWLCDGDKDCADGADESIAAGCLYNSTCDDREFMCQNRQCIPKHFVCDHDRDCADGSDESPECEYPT

Kd [1] [mM]	Kd [2] [mM]	KD (Global) [1] [mM]	KD (Largest) [1] [mM]	KD (Sum) [1] [mM]	Binder
> 5					TEELRVRLASH (peptide, UniProt P02649 148-158, looked up) [Ub-ApoE(130-140)]
	~0.0002				Biotin-LRKLRKRLLRDADDLLRKLRKRLLRDADDL (peptide, UniProt P02649 159-173, looked up) [biotinylated ApoE(141-155)^2 peptide]
3.46		3.84 ± 0.801	2.76 ± 0.361	3.78 ± 0.375	TEELRVRLASHLRALRARLL (peptide, UniProt P02649 148-167, looked up) [Ub-ApoE(130-149)(K143/146A)]
